Results published in patent publication US10429300B2, “Surface plasmon resonance approach to monitor protein-ligand interactions” (The Johns Hopkins University, priority 2015, dated 2019).

Assays:
[1] = test system: rNav1.2a/Kv2.1 VSD IV chimera containing the R1629A/L1630A substitutions; format: cell-based, rat
Source text: The DNA sequence of rat (r)Nav1.2a (provided by A. Goldin, University of California, Irvine, Irvine, Calif.), rKv2.1 (provided by K. J. Swartz, National Institutes of Health), and the rNav1.2a/Kv2.1 VSD II or IV chimera was confirmed by automated DNA sequencing, and cRNA was synthesized using T7 polymerase (mMessage mMachine™ kit; Life Technologies) after linearizing the DNA with appropriate restriction enzymes. Channels were expressed in Xenopus oocytes (obtained from Xenopus 1) and studied after a 1-d incubation after cRNA injection (incubated at 17° C. in 96 mM NaCl, 2 mM KCl, 5 mM HEPES, 1 mM MgCl2, 1.8 mM CaCl2, and 50 μg/ml gentamycin, pH 7.6 with NaOH) using two-electrode voltage-clamp recording techniques (OC-725C; Warner Instruments) with a 150-μl recording chamber. Data were filtered at 4 kHz and digitized at 20 kHz using pClamp™ 10 software (Molecular Devices). […] For all channels, voltage-activation relationships were recorded in the absence and presence of toxin. The ratio of currents (I/I0) recorded in the presence (I) and absence (I0) of toxin was calculated for voltages typically ranging from −140 to 10 cmV, depending on the construct. […] The apparent equilibrium dissociation constant (apparent KD) for Kv channels was calculated according to KD=((1/(1c−cFu^1/4))c−c1)[toxin], assuming four independent toxin-binding sites per channel. […]

[2] = target: rNav1.2a/Kv2.1 VSD IV chimera R1629A; conditions: R1629A substitution; read-out: apparent KD; cited from earlier work
rNav1.2a = experiment: Two-electrode voltage-clamp, rNav1.2a expressed in Xenopus oocytes; format: cell-based, rat; conditions: 100 nM toxin
Source text: The DNA sequence of rat (r)Nav1.2a (provided by A. Goldin, University of California, Irvine, Irvine, Calif.), rKv2.1 (provided by K. J. Swartz, National Institutes of Health), and the rNav1.2a/Kv2.1 VSD II or IV chimera was confirmed by automated DNA sequencing, and cRNA was synthesized using T7 polymerase (mMessage mMachine™ kit; Life Technologies) after linearizing the DNA with appropriate restriction enzymes. Channels were expressed in Xenopus oocytes (obtained from Xenopus 1) and studied after a 1-d incubation after cRNA injection (incubated at 17° C. in 96 mM NaCl, 2 mM KCl, 5 mM HEPES, 1 mM MgCl2, 1.8 mM CaCl2, and 50 μg/ml gentamycin, pH 7.6 with NaOH) using two-electrode voltage-clamp recording techniques (OC-725C; Warner Instruments) with a 150-μl recording chamber. Data were filtered at 4 kHz and digitized at 20 kHz using pClamp™ 10 software (Molecular Devices). Microelectrode resistances were 0.5-1.5 MΩ when filled with 3 M KCl. For Kv chimera channel experiments, the external recording solution contained (mM): 50 KCl, 50 NaCl, 5 HEPES, 1 MgCl2, and 0.3 CaCl2, pH 7.6 with NaOH. For rNav1.2a experiments, the external recording solution contained (mM): 100 NaCl, 5 HEPES, 1 MgCl2, and 1.8 CaCl2, pH 7.6 with NaOH. All experiments were performed at ˜22° C. Leak and background conductances, identified by blocking the channel with agitoxin-2 (provided by K. J. Swartz), have been subtracted for all of the Kv channel currents shown. […] Voltage-activation relationships were obtained by measuring tail currents for Kv channels or steady-state currents and calculating conductance for Nav channels, and a single Boltzmann function was fitted to the data according to I/Imax=[1c+cexp(−zF(Vc−cV1/2)/RT)]^−1, where I/Imax is the normalized tail-current amplitude, z is the equivalent charge, V1/2 is the half-activation voltage, F is Faraday's constant, R is the gas constant, and T is temperature in kelvin. For all channels, voltage-activation relationships were recorded in the absence and presence of toxin. The ratio of currents (I/I0) recorded in the presence (I) and absence (I0) of toxin was calculated for voltages typically ranging from −140 to 10 cmV, depending on the construct. […] The apparent equilibrium dissociation constant (apparent KD) for Kv channels was calculated according to KD=((1/(1c−cFu^1/4))c−c1)[toxin], assuming four independent toxin-binding sites per channel. Results are given as mean±SEM unless noted otherwise. Offline data analysis was performed using Clampfit 10™ (Molecular Devices), Origin 8.0™ (OriginLab), and Excel™ (Microsoft). All chemicals were obtained from Sigma-Aldrich.
Representative sodium currents were elicited by a 50-ms depolarization to a suitable membrane voltage (−20 to −15 mV) before (black) and after toxin addition (green) from a holding voltage of −90 mV. […] For each toxin, K^+ currents were elicited by a 300-ms depolarization to 0 mV from a holding voltage of −90 mV (tail voltage was −60 mV). […] For each toxin, K^+ currents (top) were elicited by a 300-ms depolarization near the foot of the voltage-activation curve (bottom) from a holding voltage of −90 mV.

Sequence of rNav1.2a/Kv2.1 VSD IV chimera containing the R1629A/L1630A substitutions (P04775 1605-1636 R1629A/L1630A limits assumed): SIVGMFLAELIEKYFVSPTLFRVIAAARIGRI
Sequence of rNav1.2a/Kv2.1 VSD IV chimera R1629A (P04775 1605-1636 R1629A limits assumed): as the sequence (P04775 1605-1636 R1629A/L1630A limits assumed) above, with A26L counted along it

B1: AaHII: Nav channel-selective α-scorpion toxin from Androctonus australis hector; model toxin (protein)
chain: VKDGYIVDDVNCTYFCGRNAYCNEECTKLKGESGYCQWASPYGNACYCYKLPDHVRTKGPGRCH
[1]; 100 nM toxin
  inhibition of the double mutant channel: strongly inhibits
[1]; read-out: apparent KD
  Kd: 193 ± 42 nM
[2]
  Kd: 235 ± 24 nM
rNav1.2a; 50-ms test pulse
  effect on rNav1.2a fast inactivation: inhibits rNav1.2a fast inactivation
rNav1.2a; single-exponential fit of current decay, n=3, mean±SEM
  fast inactivation time constant (τ) after toxin application: 4.9±0.1
